From US20190322724 come the findings set out here.

Series [1] has as its target WT TIMP-2-His6 tyrosine phosphorylated by c-Src.
For series [2], the target named is wild type human TIMP-2 with C-terminal His6 tag (WT TIMP-2-His6).

Sequence of TIMP-2 Y90F-His6 (chain, as listed by the source Y90F): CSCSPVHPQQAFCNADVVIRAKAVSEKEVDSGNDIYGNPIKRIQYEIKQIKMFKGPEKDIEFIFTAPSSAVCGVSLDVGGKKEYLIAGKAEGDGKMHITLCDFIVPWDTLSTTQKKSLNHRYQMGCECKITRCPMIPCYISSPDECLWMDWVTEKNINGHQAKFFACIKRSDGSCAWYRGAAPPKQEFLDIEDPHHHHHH
Sequence of TIMP-2 Y90E-His6 (chain, as listed by the source Y90E): as the sequence (chain, as listed by the source Y90F) above, with F64E counted along it

B1: active 62 kDa MMP-2 (protein)
chain: YNFFPRKPKWDKNQITYRIIGYTPDLDPETVDDAFARAFQVWSDVTPLRFSRIHDGEADIMINFGRWEHGDGYPFDGKDGLLAHAFAPGTGVGGDSHFDDDELWTLGEGQVVRVKYGNADGEYCKFPFLFNGKEYNSCTDTGRSDGFLWCSTTYNFEKDGKYGFCPHEALFTMGGNAEGQPCKFPFRFQGTSYDSCTTEGRTDGYRWCGTTEDYDRDKKYGFCPETAMSTVGGNSEGAPCVFPFTFLGNKYESCTSAGRSDGKMWCATTANYDDDRKWGFCPDQGYSLFLVAAHEFGHAMGLEHSQDPGALMAPIYTYTKNFRLSQDDIKGIQELYGASPDIDLGTGPTPTLGPVTPEICKQDIVFDGIAQIRGEIFFFKDRFIWRTVTPRDKPMGPLLVATFWPELPEKIDAVYEAPQEEKAVFFAGNEYWIYSASTLERGYPKPLTSLGLPPDVQRVDAAFNWSKNKKTYIFAGDKFWRYNEVKKKMDPGFPKLIADAWNAIPDNLDAVVDLQGGGHSYFFKGAYYLKLENQSLKSVKFGSIKSDWLGC
In the case of B1, the “MMP-2 enzymatic activity on a fluorogenic peptide substrate” value was “phosphoTIMP-2 (pWT) is significantly (˜25 percent) more inhibitory than the non-phosphorylated WT TIMP-2 toward MMP-2” in series [1], “phosphomimetic TIMP-2 Y90E inhibitory function correlates with significantly less MMP-2 enzymatic activity” with TIMP-2 Y90E-His6, “non-phosphorylatable Y90F displayed a slightly less MMP-2 inhibitory activity compared the WT TIMP-2” with TIMP-2 Y90F-His6 and “as expected WT TIMP-2 acts as an MMP-2 inhibitor” in series [2].
